From the supplement of paper PMC10567573

B1: IQUB (parent)
chain: KIREKEEWIKLDYHRRHNPKTNED

Variants of: B1
Assay: protein stability index of a GFP-peptide fusion (GPS, HEK-293T) (PSI 1-6); higher = more stable
Conditions: c terminus: a fixed tail appended
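Also: lentivirally expressed fusions sorted by FACS into six bins by GFP to DsRed ratio, PSI derived from sequencing read proportions per bin multiplied by bin number.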

With KIREKEEWIKGDYHRRHNPKTNED [L11G] as the variant, how does the protein stability index read?
Its protein stability index is 4.64.

With KIREKEEWIKKDYHRRHNPKTNED [L11K] as the variant, how does the protein stability index read?
The protein stability index was 4.71.

Which protein stability index does the source give for KIREKEEWIKTDYHRRHNPKTNED [L11T] here?
Its protein stability index is 5.2.

With KIREKEEWIKADYHRRHNPKTNED [L11A] as the variant, how does the protein stability index read?
Its protein stability index is 4.77.

With KIREKEEWIKNDYHRRHNPKTNED [L11N] as the variant, how does the protein stability index read?
Its protein stability index is 5.15.

For KIREKEEWIKVDYHRRHNPKTNED [L11V], which protein stability index is on record?
The protein stability index was 4.55.

For KIREKEEWIKYDYHRRHNPKTNED [L11Y], which protein stability index is on record?
The protein stability index was 4.81.

Which protein stability index does the source give for KIREKEEWIKMDYHRRHNPKTNED [L11M] here?
Its protein stability index is 4.71.

For KIREKEEWIKCDYHRRHNPKTNED [L11C], which protein stability index is on record?
Its protein stability index is 4.52.

With KIREKEEWIKDDYHRRHNPKTNED [L11D] as the variant, how does the protein stability index read?
Its protein stability index is 4.93.

For KIREKEEWIKWDYHRRHNPKTNED [L11W], which protein stability index is on record?
The protein stability index was 4.13.

With KIREKEEWIKPDYHRRHNPKTNED [L11P] as the variant, how does the protein stability index read?
Its protein stability index is 4.78.

Which protein stability index does the source give for KIREKEEWIKRDYHRRHNPKTNED [L11R] here?
The protein stability index was 5.29.

For KIREKEEWIKEDYHRRHNPKTNED [L11E], which protein stability index is on record?
Its protein stability index is 4.32.

With KIREKEEWIKSDYHRRHNPKTNED [L11S] as the variant, how does the protein stability index read?
Its protein stability index is 5.23.

Which protein stability index does the source give for KIREKEEWIKHDYHRRHNPKTNED [L11H] here?
Its protein stability index is 4.66.

With KIREKEEWIKIDYHRRHNPKTNED [L11I] as the variant, how does the protein stability index read?
The protein stability index was 3.78.

For KIREKEEWIKFDYHRRHNPKTNED [L11F], which protein stability index is on record?
Its protein stability index is 4.33.

With KIREKEEWIKQDYHRRHNPKTNED [L11Q] as the variant, how does the protein stability index read?
Its protein stability index is 5.37.

With KIREKEEWIKLDYHFRHNPKTNED [R15F] as the variant, how does the protein stability index read?
The protein stability index was 4.23.

With KIREKEEWIKLDYHARHNPKTNED [R15A] as the variant, how does the protein stability index read?
Its protein stability index is 5.05.

For KIREKEEWIKLDYHCRHNPKTNED [R15C], which protein stability index is on record?
The protein stability index was 3.89.

Which protein stability index does the source give for KIREKEEWIKLDYHLRHNPKTNED [R15L] here?
The protein stability index was 4.49.

With KIREKEEWIKLDYHKRHNPKTNED [R15K] as the variant, how does the protein stability index read?
Its protein stability index is 4.64.

Which protein stability index does the source give for KIREKEEWIKLDYHWRHNPKTNED [R15W] here?
Its protein stability index is 4.16.

Which protein stability index does the source give for KIREKEEWIKLDYHVRHNPKTNED [R15V] here?
The protein stability index was 4.97.

Which protein stability index does the source give for KIREKEEWIKLDYHDRHNPKTNED [R15D] here?
Its protein stability index is 5.33.

With KIREKEEWIKLDYHMRHNPKTNED [R15M] as the variant, how does the protein stability index read?
The protein stability index was 4.3.

For KIREKEEWIKLDYHPRHNPKTNED [R15P], which protein stability index is on record?
Its protein stability index is 4.17.

Which protein stability index does the source give for KIREKEEWIKLDYHNRHNPKTNED [R15N] here?
The protein stability index was 4.39.

With KIREKEEWIKLDYHSRHNPKTNED [R15S] as the variant, how does the protein stability index read?
Its protein stability index is 5.22.

For KIREKEEWIKLDYHERHNPKTNED [R15E], which protein stability index is on record?
Its protein stability index is 4.46.

Which protein stability index does the source give for KIREKEEWIKLDYHTRHNPKTNED [R15T] here?
Its protein stability index is 4.76.

For KIREKEEWIKLDYHYRHNPKTNED [R15Y], which protein stability index is on record?
Its protein stability index is 4.08.

Which protein stability index does the source give for KIREKEEWIKLDYHIRHNPKTNED [R15I] here?
The protein stability index was 4.29.

Which protein stability index does the source give for KIREKEEWIKLDYHGRHNPKTNED [R15G] here?
The protein stability index was 4.83.

For KIREKEEWIKLDYHHRHNPKTNED [R15H], which protein stability index is on record?
Its protein stability index is 4.36.

With KIREKEEWIKLDYHQRHNPKTNED [R15Q] as the variant, how does the protein stability index read?
The protein stability index was 3.98.

For KIREKEEWIKLDYHRRGNPKTNED [H17G], which protein stability index is on record?
The protein stability index was 4.97.

Which protein stability index does the source give for KIREKEEWIKLDYHRRLNPKTNED [H17L] here?
The protein stability index was 4.67.

With KIREKEEWIKLDYHRRINPKTNED [H17I] as the variant, how does the protein stability index read?
Its protein stability index is 4.5.

For KIREKEEWIKLDYHRRENPKTNED [H17E], which protein stability index is on record?
Its protein stability index is 4.11.

With KIREKEEWIKLDYHRRRNPKTNED [H17R] as the variant, how does the protein stability index read?
The protein stability index was 4.51.

Which protein stability index does the source give for KIREKEEWIKLDYHRRCNPKTNED [H17C] here?
Its protein stability index is 4.16.

With KIREKEEWIKLDYHRRKNPKTNED [H17K] as the variant, how does the protein stability index read?
Its protein stability index is 4.23.

With KIREKEEWIKLDYHRRPNPKTNED [H17P] as the variant, how does the protein stability index read?
Its protein stability index is 5.17.

With KIREKEEWIKLDYHRRNNPKTNED [H17N] as the variant, how does the protein stability index read?
Its protein stability index is 4.16.

With KIREKEEWIKLDYHRRANPKTNED [H17A] as the variant, how does the protein stability index read?
The protein stability index was 4.71.

Which protein stability index does the source give for KIREKEEWIKLDYHRRQNPKTNED [H17Q] here?
Its protein stability index is 5.08.

For KIREKEEWIKLDYHRRYNPKTNED [H17Y], which protein stability index is on record?
The protein stability index was 3.99.

With KIREKEEWIKLDYHRRDNPKTNED [H17D] as the variant, how does the protein stability index read?
The protein stability index was 5.08.

With KIREKEEWIKLDYHRRTNPKTNED [H17T] as the variant, how does the protein stability index read?
Its protein stability index is 4.57.

Which protein stability index does the source give for KIREKEEWIKLDYHRRMNPKTNED [H17M] here?
The protein stability index was 4.21.

Which protein stability index does the source give for KIREKEEWIKLDYHRRFNPKTNED [H17F] here?
Its protein stability index is 4.41.

With KIREKEEWIKLDYHRRSNPKTNED [H17S] as the variant, how does the protein stability index read?
The protein stability index was 4.83.

With KIREKEEWIKLDYHRRVNPKTNED [H17V] as the variant, how does the protein stability index read?
Its protein stability index is 4.87.

Which protein stability index does the source give for KIREKEEWICLDYHRRHNPKTNED [K10C] here?
The protein stability index was 4.15.

Which protein stability index does the source give for KIREKEEWILLDYHRRHNPKTNED [K10L] here?
Its protein stability index is 4.04.

For KIREKEEWIRLDYHRRHNPKTNED [K10R], which protein stability index is on record?
The protein stability index was 4.92.

Which protein stability index does the source give for KIREKEEWIQLDYHRRHNPKTNED [K10Q] here?
The protein stability index was 4.74.

For KIREKEEWIALDYHRRHNPKTNED [K10A], which protein stability index is on record?
Its protein stability index is 4.65.

Which protein stability index does the source give for KIREKEEWIELDYHRRHNPKTNED [K10E] here?
The protein stability index was 5.3.

With KIREKEEWINLDYHRRHNPKTNED [K10N] as the variant, how does the protein stability index read?
The protein stability index was 4.48.

For KIREKEEWITLDYHRRHNPKTNED [K10T], which protein stability index is on record?
The protein stability index was 4.97.

With KIREKEEWIPLDYHRRHNPKTNED [K10P] as the variant, how does the protein stability index read?
The protein stability index was 5.26.

For KIREKEEWIMLDYHRRHNPKTNED [K10M], which protein stability index is on record?
The protein stability index was 4.67.

With KIREKEEWISLDYHRRHNPKTNED [K10S] as the variant, how does the protein stability index read?
The protein stability index was 4.68.

With KIREKEEWIYLDYHRRHNPKTNED [K10Y] as the variant, how does the protein stability index read?
The protein stability index was 4.31.

With KIREKEEWIILDYHRRHNPKTNED [K10I] as the variant, how does the protein stability index read?
Its protein stability index is 4.16.

Which protein stability index does the source give for KIREKEEWIDLDYHRRHNPKTNED [K10D] here?
Its protein stability index is 4.99.

Which protein stability index does the source give for KIREKEEWIWLDYHRRHNPKTNED [K10W] here?
The protein stability index was 3.17.

For KIREKEEWIFLDYHRRHNPKTNED [K10F], which protein stability index is on record?
Its protein stability index is 4.68.

Which protein stability index does the source give for KIREKEEWIVLDYHRRHNPKTNED [K10V] here?
The protein stability index was 4.2.

Which protein stability index does the source give for KIREKEEWIGLDYHRRHNPKTNED [K10G] here?
The protein stability index was 4.9.

With KIREKEEWIHLDYHRRHNPKTNED [K10H] as the variant, how does the protein stability index read?
The protein stability index was 4.56.

With KIREKEEWIKLVYHRRHNPKTNED [D12V] as the variant, how does the protein stability index read?
Its protein stability index is 3.65.

For KIREKEEWIKLMYHRRHNPKTNED [D12M], which protein stability index is on record?
Its protein stability index is 3.7.

For KIREKEEWIKLSYHRRHNPKTNED [D12S], which protein stability index is on record?
Its protein stability index is 3.59.

With KIREKEEWIKLTYHRRHNPKTNED [D12T] as the variant, how does the protein stability index read?
The protein stability index was 3.79.

With KIREKEEWIKLPYHRRHNPKTNED [D12P] as the variant, how does the protein stability index read?
Its protein stability index is 4.41.

Which protein stability index does the source give for KIREKEEWIKLIYHRRHNPKTNED [D12I] here?
The protein stability index was 3.28.

For KIREKEEWIKLGYHRRHNPKTNED [D12G], which protein stability index is on record?
Its protein stability index is 4.51.

Which protein stability index does the source give for KIREKEEWIKLYYHRRHNPKTNED [D12Y] here?
The protein stability index was 3.62.

With KIREKEEWIKLCYHRRHNPKTNED [D12C] as the variant, how does the protein stability index read?
Its protein stability index is 3.93.

With KIREKEEWIKLEYHRRHNPKTNED [D12E] as the variant, how does the protein stability index read?
Its protein stability index is 4.27.

For KIREKEEWIKLRYHRRHNPKTNED [D12R], which protein stability index is on record?
Its protein stability index is 4.21.

For KIREKEEWIKLQYHRRHNPKTNED [D12Q], which protein stability index is on record?
The protein stability index was 4.55.

Which protein stability index does the source give for KIREKEEWIKLFYHRRHNPKTNED [D12F] here?
Its protein stability index is 4.01.

For KIREKEEWIKLKYHRRHNPKTNED [D12K], which protein stability index is on record?
The protein stability index was 4.54.

With KIREKEEWIKLNYHRRHNPKTNED [D12N] as the variant, how does the protein stability index read?
Its protein stability index is 3.92.

For KIREKEEWIKLWYHRRHNPKTNED [D12W], which protein stability index is on record?
Its protein stability index is 3.79.

Which protein stability index does the source give for KIREKEEWIKLHYHRRHNPKTNED [D12H] here?
Its protein stability index is 4.41.

With KIREKEEWIKLAYHRRHNPKTNED [D12A] as the variant, how does the protein stability index read?
Its protein stability index is 4.07.

With KIREKEEWIKLLYHRRHNPKTNED [D12L] as the variant, how does the protein stability index read?
Its protein stability index is 3.79.
